Five molecules from paper PMC10681719, “An archaeal virus-encoded anti-CRISPR protein inhibits type III-B immunity by inhibiting Cas RNP complex turnover” can be followed below.

The target of data set [1] is Cmr-α ribonucleoprotein complex (RNP) (S. islandicus | S. islandicus (endogenous in the expression strain)).
In data set [2] the target is T1, AcrIIIB2 (Sulfolobus islandicus rod-shaped virus …, UniProt A0A1B3SN31 1-149).
T1 sequence: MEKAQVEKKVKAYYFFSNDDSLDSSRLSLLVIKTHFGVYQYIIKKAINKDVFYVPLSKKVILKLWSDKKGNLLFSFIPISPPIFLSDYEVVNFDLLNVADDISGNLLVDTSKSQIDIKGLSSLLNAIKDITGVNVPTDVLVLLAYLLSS
Description: EMSA; 10 mM EDTA; no difference in affinity among RNAs; EMSA: 20 mM MES pH 6.0, 10 mM EDTA, 250 nM FAM substrate, 70 C for 5 min (10 min stated for RNP in Methods); 12% native PAGE in 0.5x TB. The conditions noted are these: protein: recombinant, tags: C-terminal 6xHis (pET30a). A general note: In EMSA bound probe runs differently from free probe, usually more slowly.

Data set [3] deals with T1, AcrIIIB2. The experiment in a line: EMSA; 250 nM RNA, 0-15 uM protein, 10 mM EDTA, 70 C; also binds at lower temperature; EMSA: 20 mM MES pH 6.0, 10 mM EDTA, 250 nM FAM substrate, 70 C for 5 min (10 min stated for RNP in Methods); 12% native PAGE in 0.5x TB. The note with it: protein: recombinant; tags: C-terminal 6xHis (pET30a); label: 5'-FAM.

As to His-tagged AcrIIIB2 (natural protein), in data set [1], the cis RNase activity of Cmr-α RNP (100 nM) on 250 nM labeled target RNA: uncleaved target RNA, AcrIIIB2 to Cmr-α RNP molar ratios 0 to 30 came to 80%; the trans ssDNase activity of Cmr-α RNP (100 nM) with 300 nM target RNA and 300 nM labeled ssDNA: uncleaved ssDNA, AcrIIIB2 to Cmr-α RNP molar ratios 0 to 30 amounted to 15%.
For UCAAAGCUUAGAUACCCUGGA (ssRNA) [RNA3], the binding result with AcrIIIB2 [2] (label: 5'-FAM) is “binds”.
As for CCAAGCUAAUCUACUAUAGAAUUGAAAGCU (ssRNA) [RNA2], in the data set with AcrIIIB2 [2] (label: 5'-FAM), the binding result was “binds”.
Take GUGACAGCAUCUCAUACUAGACAG (ssRNA) [RNA4]: the binding result with AcrIIIB2 [2] (label: 3'-FAM) was “binds”.
For the molecule AGUCUCGUAACCAGUCCAAGAACAGAAACCAGUCAAAUGACCG (ssRNA) [RNA1 (target RNA, 43 nt)], the binding result with AcrIIIB2 [3] is on record as “binds”.
